Assay results taken from patent publication US12325756.

How the values were obtained:
[1] = target: human mesothelin on tumor cells (C30-M, C30M/F, A1847) (human), Q13421; assay: cell-based or functional assay
[2] = target: human alpha-folate receptor on tumor cells (C30-F, C30M/F, A1847) (human), P15328; assay: cell-based or functional assay
human alpha-folate receptor on tumor cells (C30-F, C30M/F, A1847) (human), P15328, sequence (P15328 25-234, stated change not applied): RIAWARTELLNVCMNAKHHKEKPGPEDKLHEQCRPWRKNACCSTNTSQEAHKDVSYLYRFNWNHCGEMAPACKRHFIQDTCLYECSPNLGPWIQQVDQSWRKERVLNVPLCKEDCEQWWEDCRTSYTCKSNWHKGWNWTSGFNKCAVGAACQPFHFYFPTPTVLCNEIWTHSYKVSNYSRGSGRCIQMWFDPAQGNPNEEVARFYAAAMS

human mesothelin on tumor cells (C30-M, C30M/F, A1847) (human), Q13421, sequence (Q13421 other isoform, or with tags, fused parts or gaps C30M C30M): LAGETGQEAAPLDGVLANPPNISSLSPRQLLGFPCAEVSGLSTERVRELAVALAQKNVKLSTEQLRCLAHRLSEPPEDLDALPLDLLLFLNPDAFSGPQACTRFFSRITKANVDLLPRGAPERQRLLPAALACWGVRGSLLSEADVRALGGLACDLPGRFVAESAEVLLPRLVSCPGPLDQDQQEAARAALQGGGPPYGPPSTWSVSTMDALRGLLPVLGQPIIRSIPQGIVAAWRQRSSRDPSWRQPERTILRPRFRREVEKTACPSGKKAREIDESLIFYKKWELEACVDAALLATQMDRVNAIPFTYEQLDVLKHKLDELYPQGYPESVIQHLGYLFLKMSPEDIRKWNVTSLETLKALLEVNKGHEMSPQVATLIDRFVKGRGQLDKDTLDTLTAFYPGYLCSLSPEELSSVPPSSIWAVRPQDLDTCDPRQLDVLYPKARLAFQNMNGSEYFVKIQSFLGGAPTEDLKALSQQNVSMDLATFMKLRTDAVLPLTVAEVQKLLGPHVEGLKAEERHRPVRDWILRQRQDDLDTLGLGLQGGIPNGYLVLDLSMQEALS

B1: P4-z anti-mesothelin chimeric antigen receptor (P4 scFv - CD8a hinge and transmembrane region - CD3z) (protein)
chain: GSQVQLQQSGPGLVTPSQTLSLTCAISGDSVSSNSATWNWIRQSPSRGLEWLGRTYYRSKWYNDYAVSVKSRMSINPDTSKNQFSLQLNSVTPEDTAVYYCARGMMTYYYGMDVWGQGTTVTVSSGILGSGGGGSGGGGSGGGGSQPVLTQSSSLSASPGASASLTCTLRSGINVGPYRIYWYQQKPGSPPQYLLNYKSDSDKQQGSGVPSRFSGSKDASANAGVLLISGLRSEDEADYYCMIWHSSAAVFGGGTQLTVLSASTTTPAPRPPTPAPTIASRPLSLRPEACRPAAGGAVHTRGLDFACDIYIWAPLAGTCGVLLLSLVITLYCRVKFSRSADAPAYQQGQNQLYNELNLGRREEYDVLDKRRGRDPEMGGKPRRKNPQEGLYNELQKDKMAEAYSEIGMKGERRRGKGHDGLYQGLSTATKDTYDALHMQALPPR
B1 showed an apoptosis (annexin V / 7-AAD) after 3 days with A1847 [1] of 34%.

B2: MOV19-28 (F-28) costimulatory-only anti-aFR chimeric antigen receptor (MOv-19 scFv - CD8a hinge - CD28 transmembrane - CD28 intracellular domain) (protein)
chain: GSSRAAQPAMAQVQLQQSGAELVKPGASVKISCKASGYSFTGYFMNWVKQSHGKSLEWIGRIHPYDGDTFYNQNFKDKATLTVDKSSNTAHMELLSLTSEDFAVYYCTRYDGSRAMDYWGQGTTVTVSSGGGGSGGGGSGGGGSDIELTQSPASLAVSLGQRAIISCKASQSVSFAGTSLMHWYHQKPGQQPKLLIYRASNLEAGVPTRFSGSGSKTDFTLNIHPVEEEDAATYYCQQSREYPYTFGGGTKLEIKRAAASTTTPAPRPPTPAPTIASQPLSLRPEACRPAAGGAVHTRGLDFACDFWVLVVVGGVLACYSLLVTVAFIIFWVRSKRSRLLHSDYMNMTPRRPGPTRKHYQPYAPPRDFAAYRS
In the case of B2, the apoptosis (annexin V / 7-AAD) after 3 days with A1847 [2] is reported as 0.5 to 1%.
